How the values were obtained:
Assay in all cases: flow cytometry, alanine scan
human CD33 Q364A = human CD33 Q364A (human, UniProt P20138 18-363)
Procedure: (§1) An alanine scan on human CD33 was performed to the determine the residues on CD33 that are involved in binding to the antibodies investigated. […] Briefly, a mutation library of CD33 was created by high-throughput, site-directed mutagenesis. Each residue was individually mutated to alanine, with alanine codons mutated to serine. The mutant library was arrayed in 384-well microplates and transiently transfected into HEK293-T. Following transfection, cells were incubated with the indicated antibodies (IgG or Fab) at concentrations pre-determined using an independent immunofluorescence titration curve on wild type CD33. […] Binding of each antibody to each mutant clone was determined in duplicates. For each point, background fluorescence was subtracted from the raw data, which were then normalized to antibody reactivity with wild type CD33.
(§2) Critical residues for antibody binding (outlined in dark grey) were residues whose mutations led to a binding of the test Abs of less than 20%. Additional secondary residues (outlined in light grey) were identified that led to a binding of the test Abs of between 20 and 40% as compared to the wild type CD33.

human CD33 S355A = human CD33 S355A (human, UniProt P20138 18-364)
Procedure: as §1, §2

human CD33 D335A = human CD33 D335A (human, UniProt P20138 18-364)
Procedure: as §1, §2

human CD33 P350A = human CD33 P350A (human, UniProt P20138 18-364)
Procedure: as §1, §2

human CD33 G318A = human CD33 G318A (human, UniProt P20138 18-364)
Procedure: as §1, §2

human CD33 V332A = human CD33 V332A (human, UniProt P20138 18-364)
Procedure: as §1, §2

human CD33 P319A = human CD33 P319A (human, UniProt P20138 18-364)
Procedure: as §1, §2

human CD33 E357A = human CD33 E357A (human, UniProt P20138 18-364)
Procedure: as §1, §2

human CD33 S323A = human CD33 S323A (human, UniProt P20138 18-364)
Procedure: as §1, §2

human CD33 E336A = human CD33 E336A (human, UniProt P20138 18-364)
Procedure: as §1, §2

human CD33 T363A = human CD33 T363A (human, UniProt P20138 18-364)
Procedure: as §1, §2

human CD33 G347A = human CD33 G347A (human, UniProt P20138 18-364)
Procedure: as §1, §2

human CD33 T354A = human CD33 T354A (human, UniProt P20138 18-364)
Procedure: as §1, §2

human CD33 A329S = human CD33 A329S (human, UniProt P20138 18-364)
Procedure: as §1, §2

human CD33 L343A = human CD33 L343A (human, UniProt P20138 18-364)
Procedure: as §1, §2

human CD33 Y340A = human CD33 Y340A (human, UniProt P20138 18-364)
Procedure: as §1, §2

human CD33 S342A = human CD33 S342A (human, UniProt P20138 18-364)
Procedure: as §1, §2

human CD33 G327A = human CD33 G327A (human, UniProt P20138 18-364)
Procedure: as §1, §2

human CD33 P330A = human CD33 P330A (human, UniProt P20138 18-364)
Procedure: as §1, §2

human CD33 E337A = human CD33 E337A (human, UniProt P20138 18-364)
Procedure: as §1, §2

human CD33 E360A = human CD33 E360A (human, UniProt P20138 18-364)
Procedure: as §1, §2

human CD33 C325A = human CD33 C325A (human, UniProt P20138 18-364)
Procedure: as §1, §2

human CD33 K352A = human CD33 K352A (human, UniProt P20138 18-364)
Procedure: as §1, §2

human CD33 R362A = human CD33 R362A (human, UniProt P20138 18-364)
Procedure: as §1, §2

human CD33 S326A = human CD33 S326A (human, UniProt P20138 18-364)
Procedure: as §1, §2

human CD33 A341S = human CD33 A341S (human, UniProt P20138 18-364)
Procedure: as §1, §2

human CD33 S324A = human CD33 S324A (human, UniProt P20138 18-364)
Procedure: as §1, §2

human CD33 T322A = human CD33 T322A (human, UniProt P20138 18-364)
Procedure: as §1, §2

human CD33 N344A = human CD33 N344A (human, UniProt P20138 18-364)
Procedure: as §1, §2

human CD33 S359A = human CD33 S359A (human, UniProt P20138 18-364)
Procedure: as §1, §2

human CD33 N349A = human CD33 N349A (human, UniProt P20138 18-364)
Procedure: as §1, §2

human CD33 S351A = human CD33 S351A (human, UniProt P20138 18-364)
Procedure: as §1, §2

human CD33 H339A = human CD33 H339A (human, UniProt P20138 18-364)
Procedure: as §1, §2

human CD33 D353A = human CD33 D353A (human, UniProt P20138 18-364)
Procedure: as §1, §2

human CD33 E333A = human CD33 E333A (human, UniProt P20138 18-364)
Procedure: as §1, §2

human CD33 T356A = human CD33 T356A (human, UniProt P20138 18-364)
Procedure: as §1, §2

human CD33 L338A = human CD33 L338A (human, UniProt P20138 18-364)
Procedure: as §1, §2

human CD33 Y358A = human CD33 Y358A (human, UniProt P20138 18-364)
Procedure: as §1, §2

human CD33 V361A = human CD33 V361A (human, UniProt P20138 18-364)
Procedure: as §1, §2

human CD33 T331A = human CD33 T331A (human, UniProt P20138 18-364)
Procedure: as §1, §2

human CD33 M348A = human CD33 M348A (human, UniProt P20138 18-364)
Procedure: as §1, §2

human CD33 H346A = human CD33 H346A (human, UniProt P20138 18-364)
Procedure: as §1, §2

human CD33 A328S = human CD33 A328S (human, UniProt P20138 18-364)
Procedure: as §1, §2

human CD33 T320A = human CD33 T320A (human, UniProt P20138 18-364)
Procedure: as §1, §2

human CD33 M334A = human CD33 M334A (human, UniProt P20138 18-364)
Procedure: as §1, §2

human CD33 F345A = human CD33 F345A (human, UniProt P20138 18-364)
Procedure: as §1, §2

human CD33 E321A = human CD33 E321A (human, UniProt P20138 18-364)
Procedure: as §1, §2

Sequence of human CD33 D335A (P20138 18-364 D335A limits assumed): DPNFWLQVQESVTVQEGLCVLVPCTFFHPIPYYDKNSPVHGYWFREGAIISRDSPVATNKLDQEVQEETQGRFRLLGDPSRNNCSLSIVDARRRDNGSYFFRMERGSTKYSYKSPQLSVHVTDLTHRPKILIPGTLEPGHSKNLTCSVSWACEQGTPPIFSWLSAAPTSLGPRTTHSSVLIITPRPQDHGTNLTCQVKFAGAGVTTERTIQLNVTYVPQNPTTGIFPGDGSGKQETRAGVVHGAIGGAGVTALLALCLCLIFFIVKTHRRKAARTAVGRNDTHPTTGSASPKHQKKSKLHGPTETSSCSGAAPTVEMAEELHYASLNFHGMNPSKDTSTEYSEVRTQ
Sequence of human CD33 L338A (P20138 18-364 L338A limits assumed): as the sequence (P20138 18-364 D335A limits assumed) above, with A318D, L321A counted along it
Sequence of human CD33 S355A (P20138 18-364 S355A limits assumed): as the sequence (P20138 18-364 D335A limits assumed) above, with A318D, S338A counted along it
Sequence of human CD33 H339A (P20138 18-364 H339A limits assumed): as the sequence (P20138 18-364 D335A limits assumed) above, with A318D, H322A counted along it
Sequence of human CD33 Y340A (P20138 18-364 Y340A limits assumed): as the sequence (P20138 18-364 D335A limits assumed) above, with A318D, Y323A counted along it
Sequence of human CD33 T322A (P20138 18-364 T322A limits assumed): as the sequence (P20138 18-364 D335A limits assumed) above, with T305A, A318D counted along it
Sequence of human CD33 M334A (P20138 18-364 M334A limits assumed): as the sequence (P20138 18-364 D335A limits assumed) above, with M317A, A318D counted along it
Sequence of human CD33 N349A (P20138 18-364 N349A limits assumed): as the sequence (P20138 18-364 D335A limits assumed) above, with A318D, N332A counted along it
Sequence of human CD33 Q364A (P20138 18-364 Q364A limits assumed): as the sequence (P20138 18-364 D335A limits assumed) above, with A318D, Q347A counted along it
Sequence of human CD33 K352A (P20138 18-364 K352A limits assumed): as the sequence (P20138 18-364 D335A limits assumed) above, with A318D, K335A counted along it
Sequence of human CD33 A329S (P20138 18-364 A329S limits assumed): as the sequence (P20138 18-364 D335A limits assumed) above, with A312S, A318D counted along it
Sequence of human CD33 S326A (P20138 18-364 S326A limits assumed): as the sequence (P20138 18-364 D335A limits assumed) above, with S309A, A318D counted along it
Sequence of human CD33 T356A (P20138 18-364 T356A limits assumed): as the sequence (P20138 18-364 D335A limits assumed) above, with A318D, T339A counted along it
Sequence of human CD33 P350A (P20138 18-364 P350A limits assumed): as the sequence (P20138 18-364 D335A limits assumed) above, with A318D, P333A counted along it

B1: Refmab #3 (antibody, V domains shown)
VH: QVQLVQSGAEVKKPGSSVKVSCKASGYTFTDYNMHWVRQAPGQGLEWIGYIYPYNGGTGYNQKFKSKATITADESTNTAYMELSSLRSEDTAVYYCARGRPAMDYWGQGTLVTVSS
VL: DIQMTQSPSSLSASVGDRVTITCRASESVDNYGISFMNWFQQKPGKAPKLLIYAASNQGSGVPSRFSGSGSGTDFTLTISSLQPDDFATYYCQQSKEVPWTFGQGTKVEIK
notes: The alanine scan used IgG or Fab
Human CD33 Q364A
  Mean % WT Binding: 97.8 % of WT
Human CD33 S355A
  Mean % WT Binding: 85.6 % of WT
Human CD33 D335A
  Mean % WT Binding: 87.4 % of WT
Human CD33 P350A
  Mean % WT Binding: 90.7 % of WT
Human CD33 G318A
  Mean % WT Binding: 117 % of WT
Human CD33 V332A
  Mean % WT Binding: 89.8 % of WT
Human CD33 P319A
  Mean % WT Binding: 76.4 % of WT
Human CD33 E357A
  Mean % WT Binding: 120 % of WT
Human CD33 S323A
  Mean % WT Binding: 115 % of WT
Human CD33 E336A
  Mean % WT Binding: 103 % of WT
Human CD33 T363A
  Mean % WT Binding: 91.5 % of WT
Human CD33 G347A
  Mean % WT Binding: 118 % of WT
Human CD33 T354A
  Mean % WT Binding: 89.1 % of WT
Human CD33 A329S
  Mean % WT Binding: 133 % of WT
Human CD33 L343A
  Mean % WT Binding: 77.4 % of WT
Human CD33 Y340A
  Mean % WT Binding: 88 % of WT
Human CD33 S342A
  Mean % WT Binding: 121 % of WT
Human CD33 G327A
  Mean % WT Binding: 132 % of WT
Human CD33 P330A
  Mean % WT Binding: 146 % of WT
Human CD33 E337A
  Mean % WT Binding: 114 % of WT
Human CD33 E360A
  Mean % WT Binding: 123 % of WT
Human CD33 C325A
  Mean % WT Binding: 91.2 % of WT
Human CD33 K352A
  Mean % WT Binding: 96.3 % of WT
Human CD33 R362A
  Mean % WT Binding: 114 % of WT
Human CD33 S326A
  Mean % WT Binding: 129 % of WT
Human CD33 A341S
  Mean % WT Binding: 138 % of WT
Human CD33 S324A
  Mean % WT Binding: 109 % of WT
Human CD33 T322A
  Mean % WT Binding: 83.5 % of WT
Human CD33 N344A
  Mean % WT Binding: 118 % of WT
Human CD33 S359A
  Mean % WT Binding: 135 % of WT
Human CD33 N349A
  Mean % WT Binding: 121 % of WT
Human CD33 S351A
  Mean % WT Binding: 91.8 % of WT
Human CD33 H339A
  Mean % WT Binding: 83.5 % of WT
Human CD33 D353A
  Mean % WT Binding: 98.3 % of WT
Human CD33 E333A
  Mean % WT Binding: 104 % of WT
Human CD33 T356A
  Mean % WT Binding: 108 % of WT
Human CD33 L338A
  Mean % WT Binding: 89.3 % of WT
Human CD33 Y358A
  Mean % WT Binding: 140 % of WT
Human CD33 V361A
  Mean % WT Binding: 97.6 % of WT
Human CD33 T331A
  Mean % WT Binding: 147 % of WT
Human CD33 M348A
  Mean % WT Binding: 133 % of WT
Human CD33 H346A
  Mean % WT Binding: 133 % of WT
Human CD33 A328S
  Mean % WT Binding: 127 % of WT
Human CD33 T320A
  Mean % WT Binding: 82.4 % of WT
Human CD33 M334A
  Mean % WT Binding: 81.2 % of WT
Human CD33 F345A
  Mean % WT Binding: 84 % of WT
Human CD33 E321A
  Mean % WT Binding: 88.4 % of WT

B2: Refmab #4 (antibody, V domains shown)
VH: QVQLVQSGAEVKKPGESVKVSCKASGYTFTNYGMNWVKQAPGQGLEWMGWINTYTGEPTYADKFQGRVTMTTDTSTSTAYMEIRNLGGDDTAVYYCARWSWSDGYYVYFDYWGQGTSVTVSS
VL: DIVMTQSPDSLTVSLGERTTINCKSSQSVLDSSTNKNSLAWYQQKPGQPPKLLLSWASTRESGIPDRFSGSGSGTDFTLTIDSPQPEDSATYYCQQSAHFPITFGQGTRLEIK
notes: as for B1
Human CD33 Q364A
  Mean % WT Binding: 81.5 % of WT
Human CD33 S355A
  Mean % WT Binding: 91.5 % of WT
Human CD33 D335A
  Mean % WT Binding: 105 % of WT
Human CD33 P350A
  Mean % WT Binding: 93.1 % of WT
Human CD33 G318A
  Mean % WT Binding: 92.2 % of WT
Human CD33 V332A
  Mean % WT Binding: 93.4 % of WT
Human CD33 P319A
  Mean % WT Binding: 97 % of WT
Human CD33 E357A
  Mean % WT Binding: 110 % of WT
Human CD33 S323A
  Mean % WT Binding: 103 % of WT
Human CD33 E336A
  Mean % WT Binding: 109 % of WT
Human CD33 T363A
  Mean % WT Binding: 124 % of WT
Human CD33 G347A
  Mean % WT Binding: 72.1 % of WT
Human CD33 T354A
  Mean % WT Binding: 106 % of WT
Human CD33 A329S
  Mean % WT Binding: 87.3 % of WT
Human CD33 L343A
  Mean % WT Binding: 116 % of WT
Human CD33 Y340A
  Mean % WT Binding: 112 % of WT
Human CD33 S342A
  Mean % WT Binding: 105 % of WT
Human CD33 G327A
  Mean % WT Binding: 99.1 % of WT
Human CD33 P330A
  Mean % WT Binding: 97.8 % of WT
Human CD33 E337A
  Mean % WT Binding: 106 % of WT
Human CD33 E360A
  Mean % WT Binding: 104 % of WT
Human CD33 C325A
  Mean % WT Binding: 88.6 % of WT
Human CD33 K352A
  Mean % WT Binding: 103 % of WT
Human CD33 R362A
  Mean % WT Binding: 104 % of WT
Human CD33 S326A
  Mean % WT Binding: 65.8 % of WT
Human CD33 A341S
  Mean % WT Binding: 104 % of WT
Human CD33 S324A
  Mean % WT Binding: 96.4 % of WT
Human CD33 T322A
  Mean % WT Binding: 98.2 % of WT
Human CD33 N344A
  Mean % WT Binding: 71.2 % of WT
Human CD33 S359A
  Mean % WT Binding: 82.7 % of WT
Human CD33 N349A
  Mean % WT Binding: 95.5 % of WT
Human CD33 S351A
  Mean % WT Binding: 114 % of WT
Human CD33 H339A
  Mean % WT Binding: 82 % of WT
Human CD33 D353A
  Mean % WT Binding: 74.9 % of WT
Human CD33 E333A
  Mean % WT Binding: 104 % of WT
Human CD33 T356A
  Mean % WT Binding: 107 % of WT
Human CD33 L338A
  Mean % WT Binding: 109 % of WT
Human CD33 Y358A
  Mean % WT Binding: 109 % of WT
Human CD33 V361A
  Mean % WT Binding: 92.4 % of WT
Human CD33 T331A
  Mean % WT Binding: 97.9 % of WT
Human CD33 M348A
  Mean % WT Binding: 85 % of WT
Human CD33 H346A
  Mean % WT Binding: 111 % of WT
Human CD33 A328S
  Mean % WT Binding: 75.6 % of WT
Human CD33 T320A
  Mean % WT Binding: 109 % of WT
Human CD33 M334A
  Mean % WT Binding: 111 % of WT
Human CD33 F345A
  Mean % WT Binding: 109 % of WT
Human CD33 E321A
  Mean % WT Binding: 120 % of WT

— patent US20260242735A1 (UNIVERSIT T BASEL, published 2026)
